One block for each molecule: values may come before it.
How the values were obtained:
[1] = molecular target: human ferroptosis suppressor protein 1, full length, recombinant from E. coli (human) (UniProt Q9BRQ8); assay: dynamic light scattering; DynaPro NanoStar, 8 °C or 20 °C, 5-10 μM protein in buffer B; also with NADH
[2] = molecular target: the molecule itself; assay: SEC + other: dynamic light scattering; in solution; the sentence points to Supplementary Fig. 4 as a whole (gel filtration in panels a, b; DLS in panel c)
[3] = molecular target: the molecule itself; assay: SEC; Superdex 200 Increase 10/300 GL, buffer B (20 mM Tris-HCl pH 8.0, 150 mM NaCl), 0.5 ml/min, 20 °C, molecular weight markers

- stoichiometry N [1]: 2
Molecule: human ferroptosis suppressor protein 1, full length, recombinant from E. coli (from UniProt Q9BRQ8 1-373) (enzyme)

B1: human FSP1 residues 1-316 (hFSP1^ΔCTD), recombinant from E. coli (domain or fragment, UniProt Q9BRQ8 1-316, looked up)
chain: MGSQVSVESGALHVVIVGGGFGGIAAASQLQALNVPFMLVDMKDSFHHNVAALRASVETGFAKKTFISYSVTFKDNFRQGLVVGIDLKNQMVLLQGGEALPFSHLILATGSTGPFPGKFNEVSSQQAAIQAYEDMVRQVQRSRFIVVVGGGSAGVEMAAEIKTEYPEKEVTLIHSQVALADKELLPSVRQEVKEILLRKGVQLLLSERVSNLEELPLNEYREYIKVQTDKGTEVATNLVILCTGIKINSSAYRKAFESRLASSGALRVNEHLQVEGHSNVYAIGDCADVRTPKMAYLAGLHANIAVANIVNSVKQR
notes: FSP1 (AIFM2), human, residues 1-316; lacks the C-terminal domain; source: E. coli BL21 (DE3), purified (Ni-Chelating Sepharose, Ulp1 cleavage, Superdex 200 Increase); not shown: His6, N-terminal, cleaved; SUMO, N-terminal, cleaved
- stoichiometry N [2]: 2

B2: Gallus gallus FSP1 residues 12-373 (cFSP1^ΔN), not methylated (domain or fragment, Gallus gallus (chicken), UniProt E1BR24 12-373, looked up)
chain: RVVIVGGGFGGIAAASQLKSWAVPFVLVDMRDAFHHNVAALRASVESGFARKTFISYSVTFGDSFRQGKVVGIDPERQQVLLSDGEELHYSHLILATGSDGPFPGKFNKVIDMESAIQTYEDMVKEIEKSERILVVGGGAAGVEMAAEIKTEYPAKEVTLIHSKIALADVELLQSVRQEVKEILLRKGVRLLLSEKVSNVENLTTNQFQKDMVVRTEKGTEVVVDMVVLCTGIKINSSAYATAFGDKLASNGALNVNKHLQLEGYDNIYAIGDCANLKEPKMAYHAELHANIVVSNIINSLTHKPLKTYQPGSLTFLLSMGKNDGVGQVKGYYVGHLLVTIAKSRDLFVSKSWKTMGQPMPS
notes: FSP1 (AIFM2) of chicken (Gallus gallus), residues 12-373; lacks the N-terminal myristoylation motif (residues 1-11); Same limits as the crystallized, methylated protein; also called native cFSP1^ΔN; source: E. coli BL21 (DE3), purified (Ni-Chelating Sepharose, Superdex 200 Increase)
- stoichiometry N [3]: 2

B3: Gallus gallus FSP1 residues 12-373 (cFSP1^ΔN), reductively methylated (domain or fragment, Gallus gallus (chicken), UniProt E1BR24 12-373, looked up)
chain: RVVIVGGGFGGIAAASQLKSWAVPFVLVDMRDAFHHNVAALRASVESGFARKTFISYSVTFGDSFRQGKVVGIDPERQQVLLSDGEELHYSHLILATGSDGPFPGKFNKVIDMESAIQTYEDMVKEIEKSERILVVGGGAAGVEMAAEIKTEYPAKEVTLIHSKIALADVELLQSVRQEVKEILLRKGVRLLLSEKVSNVENLTTNQFQKDMVVRTEKGTEVVVDMVVLCTGIKINSSAYATAFGDKLASNGALNVNKHLQLEGYDNIYAIGDCANLKEPKMAYHAELHANIVVSNIINSLTHKPLKTYQPGSLTFLLSMGKNDGVGQVKGYYVGHLLVTIAKSRDLFVSKSWKTMGQPMPS
modifications: surface lysine residues modified by reductive methylation (formaldehyde and dimethylamine-borane complex)
notes: FSP1 (AIFM2) of chicken (Gallus gallus), residues 12-373; lacks the N-terminal myristoylation motif (residues 1-11); Crystallized substrate-free and with CoQ1; A selenomethionine derivative was used for phasing; also called methylated cFSP1^ΔN; source: E. coli BL21 (DE3), purified (Ni-chelating resin, HiTrap Heparin, reductive methylation, Superdex 200 Increase)
- stoichiometry N [3]: 2

B4: Gallus gallus ferroptosis suppressor protein 1, full length (enzyme, Gallus gallus (chicken), UniProt E1BR24 1-373, looked up)
chain: MGSRLSVDDSVRVVIVGGGFGGIAAASQLKSWAVPFVLVDMRDAFHHNVAALRASVESGFARKTFISYSVTFGDSFRQGKVVGIDPERQQVLLSDGEELHYSHLILATGSDGPFPGKFNKVIDMESAIQTYEDMVKEIEKSERILVVGGGAAGVEMAAEIKTEYPAKEVTLIHSKIALADVELLQSVRQEVKEILLRKGVRLLLSEKVSNVENLTTNQFQKDMVVRTEKGTEVVVDMVVLCTGIKINSSAYATAFGDKLASNGALNVNKHLQLEGYDNIYAIGDCANLKEPKMAYHAELHANIVVSNIINSLTHKPLKTYQPGSLTFLLSMGKNDGVGQVKGYYVGHLLVTIAKSRDLFVSKSWKTMGQPMPS
notes: Ferroptosis suppressor protein 1 (FSP1, AIFM2) of chicken (Gallus gallus), full length, residues 1-373; gene optimized and synthesized, in pET-22b; also called cFSP1; chicken FSP1; source: E. coli BL21 (DE3), purified (Ni-Chelating Sepharose, Superdex 200 Increase)
- stoichiometry N [3]: 2

B5: Gallus gallus FSP1 residues 1-318 (cFSP1^ΔCTD) (domain or fragment, Gallus gallus (chicken), UniProt E1BR24 1-318, looked up)
chain: MGSRLSVDDSVRVVIVGGGFGGIAAASQLKSWAVPFVLVDMRDAFHHNVAALRASVESGFARKTFISYSVTFGDSFRQGKVVGIDPERQQVLLSDGEELHYSHLILATGSDGPFPGKFNKVIDMESAIQTYEDMVKEIEKSERILVVGGGAAGVEMAAEIKTEYPAKEVTLIHSKIALADVELLQSVRQEVKEILLRKGVRLLLSEKVSNVENLTTNQFQKDMVVRTEKGTEVVVDMVVLCTGIKINSSAYATAFGDKLASNGALNVNKHLQLEGYDNIYAIGDCANLKEPKMAYHAELHANIVVSNIINSLTHKPLK
notes: FSP1 (AIFM2) of chicken (Gallus gallus), residues 1-318; lacks the C-terminal domain (319-373); source: E. coli BL21 (DE3), purified (Ni-Chelating Sepharose, Superdex 200 Increase)
- stoichiometry N [2]: 2

— paper PMC10516921 (Nature Communications, 2023)
